This is an account of results in paper PMC4866825, “The GIRK1 subunit potentiates G protein activation of cardiac GIRK1/4 hetero-tetramers” (eLife, 2016).

What is called stoichiometry N is a count of units in the complex or per binding partner.

Data set [1] has as its target GIRK1/4 hetero-tetramers, purified and reconstituted into proteoliposomes and planar lipid bilayers (human) (UniProt P48549).
Data set [2] has as its target GIRK4 homo-tetramers, purified and reconstituted into proteoliposomes and planar lipid bilayers (human) (UniProt P48544).
Data set [3] has as its target GIRK1(N217D)/4 hetero-tetramers, purified and reconstituted into proteoliposomes and planar lipid bilayers (human) (UniProt P48549). To be noted: scale: not given.
Data set [4] deals with GIRK4 homo-tetramers, purified and reconstituted into proteoliposomes and planar lipid bilayers (human) (UniProt P48544). The source holds these as a separate data set.
Data set [5] concerns the molecule itself. The experiment in a line: SEC; fluorescent size-exclusion chromatography (FSEC) of solubilized HEK293T cell lysate, Superose 6 10/300 GL; 50 mM HEPES-KOH pH 7.35, 150 mM KCl, 4% DM for solubilization; GFP fluorescence followed.
Data set [6] has as its target T1, GIRK1-His (human full-length GIRK1 with C-terminal PreScission site, eGFP and deca-histidine tag) (human, UniProt P48549 1-501).
T1 construct: G protein gated inward rectifier K+ channel subunit GIRK1, human, full length; also called His-tagged GIRK1; GIRK1 subunit; source: HEK293S GnTI- cells, BacMam transduced together with GIRK4-1D4 (1:1), solubilized in DM; not shown: eGFP, C-terminal, kept; His10, C-terminal, kept
T1 sequence (looked up): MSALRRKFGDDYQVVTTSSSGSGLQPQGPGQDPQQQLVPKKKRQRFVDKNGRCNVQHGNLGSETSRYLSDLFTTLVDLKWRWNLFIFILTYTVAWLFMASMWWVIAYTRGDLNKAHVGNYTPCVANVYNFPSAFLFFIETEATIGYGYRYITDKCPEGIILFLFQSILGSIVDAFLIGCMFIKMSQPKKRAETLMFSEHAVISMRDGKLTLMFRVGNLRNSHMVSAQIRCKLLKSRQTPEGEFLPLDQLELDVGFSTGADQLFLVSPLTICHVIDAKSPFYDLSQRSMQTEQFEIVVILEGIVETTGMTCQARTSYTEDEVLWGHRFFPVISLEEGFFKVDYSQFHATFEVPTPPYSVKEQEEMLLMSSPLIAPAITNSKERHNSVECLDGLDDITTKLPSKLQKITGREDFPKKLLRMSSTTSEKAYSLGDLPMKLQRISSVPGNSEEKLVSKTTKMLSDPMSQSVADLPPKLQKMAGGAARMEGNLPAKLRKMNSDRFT
The data set is described as follows: SEC; purified GIRK1/4 after PreScission cleavage of eGFP and tags, Superose 6 10/300 GL in 20 mM Tris-HCl pH 7.5, 150 mM KCl, 0.2% DM, 20 mM DTT, 1 mM EDTA; fractions of the peak run on 12% SDS-PAGE, band intensities compared. To be noted: both partners purified. (In general: Size exclusion chromatography separates by hydrodynamic size, large species first.)

For “soluble Gβγ with a deca-histidine-tag instead of its physiological lipid anchor (sGβγ-His10) (from UniProt P62873 1-340; P59768 1-71) (complex)”, the b, cooperativity factor for Gβγ binding, from the fit of the equilibrium gating model to normalized planar lipid bilayer currents in data set [1] and in data set [2] was 0.6 each time. This molecule came in with a Kdb from a fit of the equilibrium gating model (two Na+ sites permanently occupied) to normalized planar lipid bilayer currents against Ni-NTA-lipid mole fraction at 0, 8 and 32 mM Na+ in data set [1] (scale: not given) of 0.004. The molecule further registered a Kdb from a fit of the 25-state equilibrium gating model to normalized planar lipid bilayer currents against Ni-NTA-lipid mole fraction (membrane sGβγ-His10 density) at 0, 8 and 32 mM Na+ in data set [2] (scale: not given) of 0.004. Also, in data set [3], the Kdb from a fit of the equilibrium gating model (b and θ4,4 fixed) to normalized planar lipid bilayer currents against Ni-NTA-lipid mole fraction at 0, 8 and 32 mM Na+ came out at 0.0024. In data set [4], the normalized GIRK4 current in planar lipid bilayers at 0.001 Ni-NTA mole fraction, 0 to 32 mM Na+ (normalized current) stood at 0.34.

B1: GIRK1 subunit fused to GFP (GIRK1-His10-pEG BacMam construct) (natural protein, human, UniProt P48549 1-501, looked up)
chain: MSALRRKFGDDYQVVTTSSSGSGLQPQGPGQDPQQQLVPKKKRQRFVDKNGRCNVQHGNLGSETSRYLSDLFTTLVDLKWRWNLFIFILTYTVAWLFMASMWWVIAYTRGDLNKAHVGNYTPCVANVYNFPSAFLFFIETEATIGYGYRYITDKCPEGIILFLFQSILGSIVDAFLIGCMFIKMSQPKKRAETLMFSEHAVISMRDGKLTLMFRVGNLRNSHMVSAQIRCKLLKSRQTPEGEFLPLDQLELDVGFSTGADQLFLVSPLTICHVIDAKSPFYDLSQRSMQTEQFEIVVILEGIVETTGMTCQARTSYTEDEVLWGHRFFPVISLEEGFFKVDYSQFHATFEVPTPPYSVKEQEEMLLMSSPLIAPAITNSKERHNSVECLDGLDDITTKLPSKLQKITGREDFPKKLLRMSSTTSEKAYSLGDLPMKLQRISSVPGNSEEKLVSKTTKMLSDPMSQSVADLPPKLQKMAGGAARMEGNLPAKLRKMNSDRFT
notes: G protein gated inward rectifier K+ channel subunit GIRK1, human, full length; A PreScission protease cleavage site stands between GIRK1 and eGFP-His10; not cut for FSEC; also called GIRK1 homo-tetramers; source: HEK293T, transiently transfected, in solubilized cell lysate (4% DM); not shown: eGFP, C-terminal, kept; His10, C-terminal, kept
For the molecule B1, in data set [5], the “stoichiometry N” value came to 4 subunits.

B2: GIRK4 subunit fused to GFP (GIRK4-1D4-pEG BacMam construct) (natural protein, human, UniProt P48544 1-419, looked up)
chain: MAGDSRNAMNQDMEIGVTPWDPKKIPKQARDYVPIATDRTRLLAEGKKPRQRYMEKSGKCNVHHGNVQETYRYLSDLFTTLVDLKWRFNLLVFTMVYTVTWLFFGFIWWLIAYIRGDLDHVGDQEWIPCVENLSGFVSAFLFSIETETTIGYGFRVITEKCPEGIILLLVQAILGSIVNAFMVGCMFVKISQPKKRAETLMFSNNAVISMRDEKLCLMFRVGDLRNSHIVEASIRAKLIKSRQTKEGEFIPLNQTDINVGFDTGDDRLFLVSPLIISHEINQKSPFWEMSQAQLHQEEFEVVVILEGMVEATGMTCQARSSYMDTEVLWGHRFTPVLTLEKGFYEVDYNTFHDTYETNTPSCCAKELAEMKREGRLLQYLPSPPLLGGCAEAGLDAEAEQNEEDEPKGLGGSREARGSV
notes: G protein gated inward rectifier K+ channel subunit GIRK4, human, full length; A PreScission protease cleavage site stands between GIRK4 and eGFP-1D4; not cut for FSEC; also called GIRK4 homo-tetramers; source: HEK293T, transiently transfected, in solubilized cell lysate (4% DM); not shown: eGFP, C-terminal, kept; 1D4 peptide, C-terminal, kept
As for B2, the “stoichiometry N” value in data set [5] came out at 4 subunits.

B3: GIRK4-1D4 (human full-length GIRK4 with C-terminal PreScission site, eGFP and 1D4 peptide tag) (natural protein, UniProt P48544 1-419, looked up)
chain: MAGDSRNAMNQDMEIGVTPWDPKKIPKQARDYVPIATDRTRLLAEGKKPRQRYMEKSGKCNVHHGNVQETYRYLSDLFTTLVDLKWRFNLLVFTMVYTVTWLFFGFIWWLIAYIRGDLDHVGDQEWIPCVENLSGFVSAFLFSIETETTIGYGFRVITEKCPEGIILLLVQAILGSIVNAFMVGCMFVKISQPKKRAETLMFSNNAVISMRDEKLCLMFRVGDLRNSHIVEASIRAKLIKSRQTKEGEFIPLNQTDINVGFDTGDDRLFLVSPLIISHEINQKSPFWEMSQAQLHQEEFEVVVILEGMVEATGMTCQARSSYMDTEVLWGHRFTPVLTLEKGFYEVDYNTFHDTYETNTPSCCAKELAEMKREGRLLQYLPSPPLLGGCAEAGLDAEAEQNEEDEPKGLGGSREARGSV
notes: G protein gated inward rectifier K+ channel subunit GIRK4, human, full length; also called 1D4-tagged GIRK4; GIRK4 subunit; source: HEK293S GnTI- cells, BacMam transduced together with GIRK1-His (1:1), solubilized in DM; not shown: eGFP, C-terminal, kept; 1D4 peptide, C-terminal, kept
As for B3, the “stoichiometry N” value in data set [6] was 1 GIRK4 per GIRK1 (2:2 in the tetramer).
